The target in one assay is T1, human TLR4 (human, UniProt O00206 24-839).
T1 construct: whole, on cells; also called hTLR4; Toll-like receptor 4
The assay is described as follows: HEK-hTLR4 cells, IL-8 ELISA; binding inferred from activation. In general terms: An ELISA detects its analyte on a solid surface through an enzyme-linked reagent.

Another assay addresses T2, human TLR2 (human, UniProt O60603 21-784).
T2 construct: whole, on cells; Expressed on the HEK-Blue hTLR2 reporter cell line; also called hTLR2; Toll-like receptor 2
The assay is described as follows: HEK-Blue hTLR2 cells, NF-κB/AP1 reporter and IL-8 ELISA; binding inferred from activation.

T2 sequence (O60603 21-784): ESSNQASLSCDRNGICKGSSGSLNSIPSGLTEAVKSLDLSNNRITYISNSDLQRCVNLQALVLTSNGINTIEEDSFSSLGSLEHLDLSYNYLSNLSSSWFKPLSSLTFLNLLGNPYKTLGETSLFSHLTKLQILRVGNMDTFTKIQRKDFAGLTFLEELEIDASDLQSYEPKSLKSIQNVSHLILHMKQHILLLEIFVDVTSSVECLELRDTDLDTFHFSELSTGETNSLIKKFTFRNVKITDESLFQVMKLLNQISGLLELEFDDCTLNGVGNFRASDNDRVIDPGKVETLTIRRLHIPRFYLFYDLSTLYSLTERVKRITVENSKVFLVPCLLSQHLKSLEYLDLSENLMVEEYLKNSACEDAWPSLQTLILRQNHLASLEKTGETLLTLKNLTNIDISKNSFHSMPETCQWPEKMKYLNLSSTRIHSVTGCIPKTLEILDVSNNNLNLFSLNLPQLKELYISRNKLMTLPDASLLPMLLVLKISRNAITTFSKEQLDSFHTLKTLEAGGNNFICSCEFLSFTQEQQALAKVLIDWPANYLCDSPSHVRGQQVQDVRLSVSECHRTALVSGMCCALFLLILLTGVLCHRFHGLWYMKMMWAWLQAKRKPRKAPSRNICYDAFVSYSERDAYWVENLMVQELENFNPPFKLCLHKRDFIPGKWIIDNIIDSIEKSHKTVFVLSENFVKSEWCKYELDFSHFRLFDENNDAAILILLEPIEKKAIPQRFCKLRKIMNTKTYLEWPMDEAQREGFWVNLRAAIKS
T1 sequence (O00206 24-839): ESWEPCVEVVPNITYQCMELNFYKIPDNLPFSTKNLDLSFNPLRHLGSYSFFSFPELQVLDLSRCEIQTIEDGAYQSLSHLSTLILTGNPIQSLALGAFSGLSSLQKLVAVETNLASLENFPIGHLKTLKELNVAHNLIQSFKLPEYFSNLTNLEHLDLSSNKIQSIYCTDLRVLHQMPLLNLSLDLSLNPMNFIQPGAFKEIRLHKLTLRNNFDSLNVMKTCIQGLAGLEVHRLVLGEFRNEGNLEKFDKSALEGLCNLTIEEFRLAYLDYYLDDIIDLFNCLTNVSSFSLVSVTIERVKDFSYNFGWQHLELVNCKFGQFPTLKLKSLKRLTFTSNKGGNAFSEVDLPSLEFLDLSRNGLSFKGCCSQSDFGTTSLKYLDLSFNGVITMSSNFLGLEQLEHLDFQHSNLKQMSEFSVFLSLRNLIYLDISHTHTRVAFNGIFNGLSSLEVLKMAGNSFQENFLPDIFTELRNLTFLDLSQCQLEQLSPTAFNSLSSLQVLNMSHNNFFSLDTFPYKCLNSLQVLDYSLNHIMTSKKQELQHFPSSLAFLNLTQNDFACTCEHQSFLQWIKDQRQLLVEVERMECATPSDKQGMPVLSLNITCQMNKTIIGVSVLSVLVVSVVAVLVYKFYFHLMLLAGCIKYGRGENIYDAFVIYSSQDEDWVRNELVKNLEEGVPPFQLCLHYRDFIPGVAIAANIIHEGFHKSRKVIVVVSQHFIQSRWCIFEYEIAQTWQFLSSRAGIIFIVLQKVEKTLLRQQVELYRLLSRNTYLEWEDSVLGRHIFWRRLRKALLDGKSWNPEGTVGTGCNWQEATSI

B1: Z13Mad5Anaxa (other)
chain: MHHHHHHKRYKNRVASRKSRAKFKQLLQHYREVAAAKSSENDRLRLLLKESLKISQAVHAAHAEINEAGREVVGVGALKVPRNQDWLGVPRFAKFASFEAQGALANIAVDKANLDVEQLESIINFEKLTEWTGSSTVHEILCKLSLEGDHSTPPSAYGSVKPYTNFDAE
notes: Recombinant fusion protein; 18973 Da; also called fusion protein of cell-penetrating peptide Z13, MAD5 cargo and TLR peptide agonist Anaxa (C-terminal)
B1: the binding result with human TLR4 and with human TLR2 was “binds” each time.

B2: EDAZ13Mad5 (other)
chain: MHHHHHHNIDRPKGLAFTDVDVDSIKIAWESPQGQVSRYRVTYSSPEDGIRELFPAPDGEDDTAELQGLRPGSEYTVSVVALHDDMESQPLIGIQSTKRYKNRVASRKSRAKFKQLLQHYREVAAAKSSENDRLRLLLKESLKISQAVHAAHAEINEAGREVVGVGALKVPRNQDWLGVPRFAKFASFEAQGALANIAVDKANLDVEQLESIINFEKLTEWTGS
notes: Recombinant fusion protein; 25057 Da; also called fusion protein of TLR4 peptide agonist EDA, cell-penetrating peptide Z13 and MAD5 cargo
Take B2: the binding result with human TLR4 is recorded as “binds”.

B3: AnaxaZ13Mad5 (other)
chain: MHHHHHHSTVHEILCKLSLEGDHSTPPSAYGSVKPYTNFDAEKRYKNRVASRKSRAKFKQLLQHYREVAAAKSSENDRLRLLLKESLKISQAVHAAHAEINEAGREVVGVGALKVPRNQDWLGVPRFAKFASFEAQGALANIAVDKANLDVEQLESIINFEKLTEWTGS
notes: Recombinant fusion protein; 18973 Da; also called AnaxZ13Mad5
Turning to B3, the binding result with human TLR2 was “binds”.

The values are drawn from patent US20180133295A1 (AMAL THERAPEUTICS, published 2018).
